Literature values as cited in article PMC10650157.

How the values were obtained:
[1] = target: apo-lactoferrin (Homo sapiens) (UniProt P02788)
[2] = target: apo-transferrin (Homo sapiens) (UniProt P02787)
Chain of UniProt P02787 (P02787 20-698): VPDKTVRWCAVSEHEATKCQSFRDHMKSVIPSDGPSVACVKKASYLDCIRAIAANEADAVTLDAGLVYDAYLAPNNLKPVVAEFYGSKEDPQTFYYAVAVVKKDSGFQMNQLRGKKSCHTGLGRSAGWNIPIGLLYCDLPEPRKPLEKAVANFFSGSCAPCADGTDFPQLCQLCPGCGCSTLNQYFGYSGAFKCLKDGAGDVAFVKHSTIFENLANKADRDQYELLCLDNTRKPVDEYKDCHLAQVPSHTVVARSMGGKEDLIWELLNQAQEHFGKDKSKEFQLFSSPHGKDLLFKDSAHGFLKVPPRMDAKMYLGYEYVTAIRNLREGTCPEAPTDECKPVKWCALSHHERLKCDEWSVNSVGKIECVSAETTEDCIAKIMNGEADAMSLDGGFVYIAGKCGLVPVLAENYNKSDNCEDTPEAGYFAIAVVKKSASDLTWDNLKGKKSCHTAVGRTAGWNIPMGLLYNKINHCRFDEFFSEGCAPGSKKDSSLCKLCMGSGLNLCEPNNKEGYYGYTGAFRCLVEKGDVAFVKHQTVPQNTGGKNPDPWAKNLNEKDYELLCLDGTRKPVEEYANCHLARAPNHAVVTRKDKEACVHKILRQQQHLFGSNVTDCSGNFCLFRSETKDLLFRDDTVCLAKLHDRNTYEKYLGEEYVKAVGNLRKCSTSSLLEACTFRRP

Chain of UniProt P02788 (P02788 20-710): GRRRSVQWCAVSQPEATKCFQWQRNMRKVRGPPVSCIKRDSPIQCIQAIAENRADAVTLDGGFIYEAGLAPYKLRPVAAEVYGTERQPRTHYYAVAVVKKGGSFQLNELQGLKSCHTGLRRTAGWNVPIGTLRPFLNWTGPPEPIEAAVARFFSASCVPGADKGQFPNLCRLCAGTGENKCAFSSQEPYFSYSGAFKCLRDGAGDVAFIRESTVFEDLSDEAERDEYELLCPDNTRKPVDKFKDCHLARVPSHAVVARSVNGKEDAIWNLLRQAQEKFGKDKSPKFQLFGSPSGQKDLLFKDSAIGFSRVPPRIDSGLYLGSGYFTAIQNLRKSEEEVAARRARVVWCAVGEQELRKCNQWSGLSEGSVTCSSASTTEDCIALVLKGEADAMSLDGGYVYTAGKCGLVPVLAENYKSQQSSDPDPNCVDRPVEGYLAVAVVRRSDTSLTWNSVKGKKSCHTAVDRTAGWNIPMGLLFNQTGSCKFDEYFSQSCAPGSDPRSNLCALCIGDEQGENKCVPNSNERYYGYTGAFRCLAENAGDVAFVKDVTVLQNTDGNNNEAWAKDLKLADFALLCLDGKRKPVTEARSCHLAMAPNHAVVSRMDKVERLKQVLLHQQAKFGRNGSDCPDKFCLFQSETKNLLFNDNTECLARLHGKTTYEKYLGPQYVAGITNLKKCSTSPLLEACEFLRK

Ceruloplasmin (from UniProt P00450)
Kd [1]: 7.4 µM
Kd [2]: 51.3 µM
